# Data as given in paper PMC7798916 (National Science Review, 2020).
# B1: HB27 (humanized monoclonal antibody, IgG) (antibody, V domains shown)
# VH: VKLVESGGGLVKPGGSLRLSCAASGFTFTNYGMSWVRQAPGKRLEWVAEISSGGSYTYYPDTVTGRFTISRDNAKNTLYLQMNSLRAEDTAVYYCARFRYGGGGTVDYWGQGTLVTVSS
# VL: IVLTQSPTLSLSPGERATLSCRASESVDNYGISFMNWFQQKPGQAPRLLIYAASNQGSGIPSRFSGSGSGTDFSLTISSLEPEDFAVYFCQQSKEVPRIFGQGTKVEIL
# notes: also called HB27 IgG; source: CHO cell line
# B2: HB27 Fab fragment (Fab, V domains shown)
# VH: B1 VH
# VL: B1 VL
# What was measured:
# Settings in all cases: both partners purified
# [1] = target: T1, SARS-CoV-2 RBD (recombinant receptor binding domain of the S glycoprotein) (SARS-CoV-2, UniProt P0DTC2); assay: ELISA
# [2] = target: T1, SARS-CoV-2 RBD (recombinant receptor …); assay: cell-based immunofluorescent blocking assay
# [3] = target: T1, SARS-CoV-2 RBD (recombinant receptor …); assay: BLI
Binder,EC50 [1] [nM],EC50 [2] [nM],Kd [3] [nM]
B1,0.5,5 to 50,0.07
B2,–,–,0.27
